From publication PMC4893818, “Folliculin directs the formation of a Rab34–RILP complex to control the nutrient‐dependent dynamic distribution of lysosomes” (EMBO Reports, 2016)
Each block holds one binder with its values, some of them ahead of it.

Key:
GST-RILP (full ORF) [1] = biological target: T1, GST-RILP (full ORF) (human, UniProt Q96NA2 1-401); assay: pull-down; purified proteins: 0.2 nmol GST-RILP on glutathione beads; Rab34 proteins at 200 nM together with FLCN-DENN (1 uM; titrated 0 to 10 uM; 0.5 uM for wild-type Rab34); HEPES pH 7.5, 250 mM NaCl, 2 mM MgCl2, 1 mM GDP or GTPγS; 14 h at 4 °C; anti-His Western blot; details: both partners purified
T1 construct: also called GST-RILP resin; source: E. coli BL21(DE3), purified (glutathione beads, eluted with glutathione, dialysed); not shown: GST, N-terminal, kept
T1 sequence (looked up): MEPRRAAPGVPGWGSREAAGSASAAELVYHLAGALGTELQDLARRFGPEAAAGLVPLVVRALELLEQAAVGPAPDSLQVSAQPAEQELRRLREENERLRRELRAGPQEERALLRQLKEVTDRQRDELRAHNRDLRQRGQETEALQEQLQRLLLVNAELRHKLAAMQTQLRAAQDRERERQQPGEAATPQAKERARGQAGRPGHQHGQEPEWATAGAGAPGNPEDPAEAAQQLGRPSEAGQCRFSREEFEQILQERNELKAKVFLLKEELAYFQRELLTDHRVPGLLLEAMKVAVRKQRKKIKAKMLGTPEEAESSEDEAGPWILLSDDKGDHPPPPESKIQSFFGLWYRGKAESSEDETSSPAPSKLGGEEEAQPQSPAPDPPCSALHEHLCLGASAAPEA

GST-RILP (full ORF) [2] = biological target: T1, GST-RILP (full ORF); assay: pull-down; 0.1 nmol GST-RILP prebound to glutathione beads, lysate of HeLa cells in normal growth or starved 4 h; 25 mM HEPES pH 7.5, 150 mM NaCl, 2 mM MgCl2, 0.2% NP-40, 0.2% Triton X-100; Western blot; details: one partner purified
GST-RILP (full ORF) [3] = biological target: T1, GST-RILP (full ORF); assay: pull-down; GST-RILP or GST on beads, His-FLCN-DENN in E. coli extract; Western blot; details: one partner purified

B1: His-tagged Rab34 WT (natural protein, mouse, UniProt Q64008 1-259, looked up)
chain: MNILAPVRRDRVLAELPQCLKKEAALHVRKDFHPRVTCACQEHRTGTVGFKISKVIVVGDLSVGKTCLINRFCKDTFDKNYKATIGVDFEMERFEVLGVPFSLQLWDTAGQERFKCIASTYYRGAQAIIIVFNLNDVASLEHTKQWLTDALKENDPSNVLLFLVGSKKDLSTPAQYSLMEKDALKVAQEIKAEYWAVSSLTGENVREFFFRVAALTFEANVLADVEKSGARHIADVVRINSDDKNLYLTASKKKATCCP
notes: Rab34, mouse, from an I.M.A.G.E. clone, in pET28 His-thrombin; loaded with GTPγS or GDP before the pull-down; also called wild-type Rab34; purified Rab34; source: E. coli, purified (His-trap FF, imidazole gradient)
- binding result (GST-RILP (full ORF) [1]): binds

B2: His-tagged Rab34 Q111L (natural protein, mouse, UniProt Q64008 1-259, looked up)
chain: MNILAPVRRDRVLAELPQCLKKEAALHVRKDFHPRVTCACQEHRTGTVGFKISKVIVVGDLSVGKTCLINRFCKDTFDKNYKATIGVDFEMERFEVLGVPFSLQLWDTAGLERFKCIASTYYRGAQAIIIVFNLNDVASLEHTKQWLTDALKENDPSNVLLFLVGSKKDLSTPAQYSLMEKDALKVAQEIKAEYWAVSSLTGENVREFFFRVAALTFEANVLADVEKSGARHIADVVRINSDDKNLYLTASKKKATCCP
notes: Rab34, mouse, from an I.M.A.G.E. clone, in pET28 His-thrombin; assayed in the presence of 1 mM GTPγS; also called GTP hydrolysis-deficient (Q111L) Rab34; source: E. coli, purified (His-trap FF, imidazole gradient)
- fold enhancement of binding to RILP in the presence of FLCN-DENN (1 uM) against without it (GST-RILP (full ORF) [1]): ~2.7 fold

Further lines, results first:

- fold increase of Rab34 retained on GST-RILP, starved against normal growth (GST-RILP (full ORF) [2]): ~2 fold
B3: endogenous Rab34 (natural protein, UniProt Q9BZG1 1-259, looked up)
chain: MNILAPVRRDRVLAELPQCLRKEAALHGHKDFHPRVTCACQEHRTGTVGFKISKVIVVGDLSVGKTCLINRFCKDTFDKNYKATIGVDFEMERFEVLGIPFSLQLWDTAGQERFKCIASTYYRGAQAIIIVFNLNDVASLEHTKQWLADALKENDPSSVLLFLVGSKKDLSTPAQYALMEKDALQVAQEMKAEYWAVSSLTGENVREFFFRVAALTFEANVLAELEKSGARRIGDVVRINSDDSNLYLTASKKKPTCCP
notes: Rab34 small GTPase, endogenous in human cell lines; source: endogenous, HeLa lysate; endogenous, lysates of UOK257, UOK257-2, UOK257-FLCN and UOK257-FLCNΔDENN cells

- binding result (GST-RILP (full ORF) [3]): binds
B4: His-tagged human FLCN-DENN domain (amino acids 341-556) (domain or fragment, UniProt Q8NFG4 341-556, looked up)
chain: RKLPVFKSLRHMRQVLGAPSFRMLAWHVLMGNQVIWKSRDVDLVQSAFEVLRTMLPVGCVRIIPYSSQYEEAYRCNFLGLSPHVQIPPHVLSSEFAVIVEVHAAARSTLHPVGCEDDQSLSKYEFVVTSGSPVAADRVGPTILNKIEAALTNQNLSVDVVDQCLVCLKEEWMNKVKVLFKFTKVDSRPKEDTQKLLSILGASEEDNVKLLKFWMTG
notes: folliculin (FLCN), human, C-terminal DENN domain, amino acids 341-556, in pET28 His-thrombin; vector pET28 His-thrombin; detected by an anti-His antibody; also called His-FLCN-DENN; source: E. coli, purified (His-trap FF, imidazole gradient)
